The test deals with vimentin 2.tag (epitope-tagged Xenopus laevis vimentin 2, 57 kD) (X. laevis). The test is described as follows: fractionation of oocytes into soluble and insoluble fractions.

The record followed here is PMC2289705.

The stoichiometry N is the number of molecules, sites or subunits per partner or assembly. Substance “vimentin 2.tag (epitope-tagged Xenopus laevis vimentin 2, 57 kD) (natural protein)” displayed a stoichiometry N of 4.
